Holding throughout (assay): SPR
(SPR reads the build-up and loss of mass on a sensor chip optically.)

The target in one series is T1, MutS D835R (Escherichia coli, UniProt P23909 1-853, D835R).
T1 sequence: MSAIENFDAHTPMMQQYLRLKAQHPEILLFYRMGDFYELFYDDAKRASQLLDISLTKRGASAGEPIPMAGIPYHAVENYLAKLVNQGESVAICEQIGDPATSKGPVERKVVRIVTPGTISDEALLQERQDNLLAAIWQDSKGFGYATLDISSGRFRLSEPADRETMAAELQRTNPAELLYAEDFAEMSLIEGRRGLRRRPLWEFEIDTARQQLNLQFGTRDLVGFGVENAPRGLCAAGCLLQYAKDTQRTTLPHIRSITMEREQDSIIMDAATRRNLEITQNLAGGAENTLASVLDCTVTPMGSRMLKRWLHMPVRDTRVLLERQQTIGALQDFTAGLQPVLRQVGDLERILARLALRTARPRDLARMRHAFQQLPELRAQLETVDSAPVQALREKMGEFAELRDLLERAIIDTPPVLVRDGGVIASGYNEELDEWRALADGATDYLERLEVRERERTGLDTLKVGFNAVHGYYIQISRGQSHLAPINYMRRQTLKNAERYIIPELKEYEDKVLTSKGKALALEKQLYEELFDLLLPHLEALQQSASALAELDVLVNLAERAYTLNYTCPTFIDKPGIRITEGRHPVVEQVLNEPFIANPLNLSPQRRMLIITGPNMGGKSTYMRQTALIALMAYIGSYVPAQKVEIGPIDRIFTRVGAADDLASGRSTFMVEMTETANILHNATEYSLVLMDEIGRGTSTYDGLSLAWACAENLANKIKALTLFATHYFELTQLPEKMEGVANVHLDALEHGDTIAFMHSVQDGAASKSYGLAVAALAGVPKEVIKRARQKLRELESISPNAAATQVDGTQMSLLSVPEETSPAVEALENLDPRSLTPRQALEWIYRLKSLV

In series [1] the target is MSH2 WT (MutSα);MSH6 WT (MutSα) (human;human, UniProt P43246;P52701 1-934;1-1360, |).
The target of series [2] is MSH2 dMBD2;MSH6 WT (MutSα) (human;human, UniProt P43246;P52701 125-934;1-1360, |).
In series [3] the target is MSH2 del2-7;MSH6 WT (MutSα) (human;human, UniProt P43246;P52701 1-934;1-1360, del2-7|).
For another series, the target named is T2, MutS WT (Escherichia coli, UniProt P23909 1-853).
T2 sequence: T1 sequence with R835D

Substitutions are numbered along the chain they refer to.

Broadly, the Kd is the concentration at which binding is half-saturated. A high value points to a looser complex.

B1: 21 bp GT mismatch (SPR) (dsDNA)
DNA 1: TTTTTTTTTTTTTTTTTTTTAGTCGCCAGGGACCAGTGTCA
DNA 2: TGACACTGGTCTCTGGCGACT
B1: the Kd with MutS D835R came to 30.85 ± 0.08 nM; in series [1], 1.08 ± 0.02 nM; in series [2] it was 16.4 ± 0.86 nM; in series [3], 3.28 ± 0.12 nM. For the same molecule, the binding result with MutS WT is reported as “binds”.

(Values after PMC9943660.)
